system: Escherichia coli TOP10; assay: shrunken log2 fold change of peptide-encoding DNA abundance (4.5 h post-induction vs induction); higher = less antimicrobial activity (less host growth inhibition); details: time post-induction: 4.5 h; library: site-saturation at positions 5, 18, 19, 20
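Also: peptides expressed intracellularly from a pBAD plasmid library in pooled LB shake-flask culture, induced with 0.3% L-arabinose, DNA abundance read by NGS, three biological replicates, DESeq2 with apeglm shrinkage.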

Sequence | shrunken log2 fold change
RRIRCRPPRLPRPRPRPARQPRP | 0.0993
RRIRLRPPRLPRPRPRPTVPPRP | -0.0925
RRIRKRPPRLPRPRPRPKMWPRP | 0.363
RRIRGRPPRLPRPRPRPKPGPRP | 1.07
RRIRIRPPRLPRPRPRPPKIPRP | -0.106
RRIRQRPPRLPRPRPRPMEVPRP | -0.0855
RRIRHRPPRLPRPRPRPLNGPRP | -0.178
RRIRERPPRLPRPRPRPEAHPRP | 0.201
RRIRERPPRLPRPRPRPPIEPRP | -0.227
RRIRFRPPRLPRPRPRPDAPPRP | 0.421
RRIRLRPPRLPRPRPRPWIEPRP | -0.00922
RRIRDRPPRLPRPRPRPFNIPRP | 0.0125
RRIRKRPPRLPRPRPRPNHEPRP | -0.0766
RRIRPRPPRLPRPRPRPVRVPRP | 0.502
RRIRRRPPRLPRPRPRPGAKPRP | 0.701
RRIRWRPPRLPRPRPRPLTNPRP | -0.114
RRIRKRPPRLPRPRPRPCTYPRP | 0.0972
RRIRRRPPRLPRPRPRPGICPRP | 0.0771
RRIRYRPPRLPRPRPRPFSHPRP | -0.0363
RRIRQRPPRLPRPRPRPVKAPRP | 0.198
RRIRYRPPRLPRPRPRPDPLPRP | -0.0227
RRIRARPPRLPRPRPRPARHPRP | 0.424
RRIRCRPPRLPRPRPRPRNYPRP | -0.094
RRIRTRPPRLPRPRPRPRCSPRP | -0.262
RRIRRRPPRLPRPRPRPYMTPRP | -0.0329

Sequence | shrunken log2 fold change
RRIRERPPRLPRPRPRPPVRPRP | 0.538
RRIRLRPPRLPRPRPRPNRTPRP | 0.0829
RRIRRRPPRLPRPRPRPNNDPRP | -0.358
RRIRRRPPRLPRPRPRPIQLPRP | -0.407
RRIRWRPPRLPRPRPRPPVRPRP | 0.108
RRIRMRPPRLPRPRPRPLSIPRP | -0.0206
RRIRRRPPRLPRPRPRPHKIPRP | -0.182
RRIRSRPPRLPRPRPRPCTFPRP | -0.401
RRIRRRPPRLPRPRPRPNFPPRP | 0.46
RRIRMRPPRLPRPRPRPIVKPRP | 0.0312
RRIRSRPPRLPRPRPRPLIVPRP | -0.206
RRIRVRPPRLPRPRPRPKRCPRP | -0.0118
RRIRPRPPRLPRPRPRPKMYPRP | -0.938
RRIRERPPRLPRPRPRPRSVPRP | -0.219
RRIRNRPPRLPRPRPRPEKNPRP | 0.907
RRIRWRPPRLPRPRPRPDWCPRP | 0.112
RRIRKRPPRLPRPRPRPNNNPRP | -0.255
RRIRSRPPRLPRPRPRPDIKPRP | -0.336
RRIRNRPPRLPRPRPRPREPPRP | 0.697
RRIRQRPPRLPRPRPRPIHTPRP | 0.0773
RRIRLRPPRLPRPRPRPYVPPRP | -0.383
RRIRVRPPRLPRPRPRPQLTPRP | -0.0141
RRIRWRPPRLPRPRPRPSGVPRP | -0.158
RRIRMRPPRLPRPRPRPWLKPRP | -0.11
RRIRSRPPRLPRPRPRPLQIPRP | 0.0322

Sequence | shrunken log2 fold change
RRIRARPPRLPRPRPRPYKCPRP | -0.138
RRIRDRPPRLPRPRPRPKKRPRP | 0.403
RRIRPRPPRLPRPRPRPPTAPRP | 0.189
RRIRARPPRLPRPRPRPIHYPRP | -0.241
RRIRYRPPRLPRPRPRPTDLPRP | -0.396
RRIRPRPPRLPRPRPRPIHDPRP | -0.0217
RRIRGRPPRLPRPRPRPHYCPRP | 0.167
RRIRMRPPRLPRPRPRPDAHPRP | 0.0846
RRIRFRPPRLPRPRPRPQVGPRP | -0.0394
RRIRRRPPRLPRPRPRPMWRPRP | 0.312
RRIRERPPRLPRPRPRPDFDPRP | -0.356
RRIRVRPPRLPRPRPRPWYSPRP | -0.183
RRIRGRPPRLPRPRPRPHLLPRP | 0.306
RRIRMRPPRLPRPRPRPPISPRP | 0.163
RRIRNRPPRLPRPRPRPIVAPRP | -0.367
RRIRKRPPRLPRPRPRPFLYPRP | -0.436
RRIRPRPPRLPRPRPRPWHPPRP | -0.227
RRIRWRPPRLPRPRPRPHDSPRP | -0.122
RRIRGRPPRLPRPRPRPWEHPRP | -0.000921
RRIRNRPPRLPRPRPRPHARPRP | 0.187
RRIRARPPRLPRPRPRPCTCPRP | -0.199
RRIRMRPPRLPRPRPRPFHFPRP | -0.313
RRIRSRPPRLPRPRPRPTCPPRP | 0.0454
RRIRERPPRLPRPRPRPGAMPRP | 0.316
RRIRHRPPRLPRPRPRPPNTPRP | -0.0573

Source: the supplement of paper PMC9112550, “Optimization of the antimicrobial peptide Bac7 by deep mutational scanning” (BMC Biology, 2022)
